Values joined by “and” are separate entries in the source; they are usually repeats but may differ in a detail not shown here. Equal entries are not always repeated.
Assays:
[1] = biological target: LarE from Thermotoga maritima, C-terminal His6-tagged (Thermotoga maritima); assay: native MS; nondenaturing nano-ESI-MS (Q Exactive UHMR) under anoxic atmosphere; cluster-assembled His6-tagged LarETm after anaerobic incubation with IscSEc and L-cysteine; CID 15 eV
[2] = biological target: LarE from Thermotoga maritima, C-terminal His6-tagged (Thermotoga maritima); assay: SEC-MALS; Superdex 200 Increase 10/300 GL, 100 mM Tris-HCl pH 7.2, 300 mM NaCl, 0.5 ml/min; miniDAWN TREOS detector

stoichiometry N [1]: 2 and 4 and 6 | stoichiometry N [2]: 2
Substance: LarE from Thermotoga maritima, C-terminal His6-tagged (enzyme)

From article PMC9283937
